The record followed here is PMC8567388.

The target in assay [1] is PSD-95 PDZ1 6xHis (human). The assay is described as follows: ITC. For orientation: Isothermal titration calorimetry measures the heat released or taken up as one component is titrated into another.
Assay [2] deals with PSD-95 PDZ1-2 6xHis (human). The assay is described as follows: ITC.

B1: Stargazin_CT (aa 203-323) (domain or fragment)
chain: DRHKQLRATARATDYLQASAITRIPSYRYRYQRRSRSSSRSTEPSHSRDASPVGVKGFNTLPSTEISMYTLSRDPLKAATTPTATYNSDRDNSFLQVHNCIQKDSKDSLHANTANRRTTPV
With B1, the Kd (commonly the constant that tells how readily two partners part at equilibrium) in assay [1] came to 100 µM; in assay [2], 12 µM.
